Laboratory results published in IntAct's records for PubMed 23085988.

B1: Sorting nexin-8 (Homo sapiens), Q9Y5X2 (parent)
chain: MTGRAMDPLPAAAVGAAAEAEADEEADPPASDLPTPQAIEPQAIVQQVPAPSRMQMPQGNPLLLSHTLQELLARDTVQVELIPEKKGLFLKHVEYEVSSQRFKSSVYRRYNDFVVFQEMLLHKFPYRMVPALPPKRMLGADREFIEARRRALKRFVNLVARHPLFSEDVVLKLFLSFSGSDVQNKLKESAQCVGDEFLNCKLATRAKDFLPADIQAQFAISRELIRNIYNSFHKLRDRAERIASRAIDNAADLLIFGKELSAIGSDTTPLPSWAALNSSTWGSLKQALKGLSVEFALLADKAAQQGKQEENDVVEKLNLFLDLLQSYKDLCERHEKGVLHKHQRALHKYSLMKRQMMSATAQNREPESVEQLESRIVEQENAIQTMELRNYFSLYCLHQETQLIHVYLPLTSHILRAFVNSQIQGHKEMSKVWNDLRPKLSCLFAGPHSTLTPPCSPPEDGLCPH

Variants of: B1
Conditions: with snx1_human SNX1, Q13596
Chain of snx1_human SNX1, Q13596 (Q13596 whole entry): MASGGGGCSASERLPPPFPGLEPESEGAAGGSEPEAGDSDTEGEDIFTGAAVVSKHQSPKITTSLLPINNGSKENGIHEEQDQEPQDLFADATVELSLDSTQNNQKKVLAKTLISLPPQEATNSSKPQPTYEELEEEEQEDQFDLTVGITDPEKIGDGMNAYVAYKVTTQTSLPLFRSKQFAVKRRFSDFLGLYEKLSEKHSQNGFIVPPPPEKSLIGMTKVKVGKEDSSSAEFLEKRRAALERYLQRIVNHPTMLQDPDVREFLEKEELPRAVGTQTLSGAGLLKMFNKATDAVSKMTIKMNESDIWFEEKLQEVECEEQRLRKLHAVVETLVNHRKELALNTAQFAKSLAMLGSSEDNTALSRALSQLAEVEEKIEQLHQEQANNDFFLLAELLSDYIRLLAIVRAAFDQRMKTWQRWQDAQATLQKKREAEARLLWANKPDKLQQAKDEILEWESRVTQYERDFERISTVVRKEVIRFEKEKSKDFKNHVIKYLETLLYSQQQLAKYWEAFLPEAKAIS

Row | effect of a mutation on the interaction | Variant
1 | increasing interaction | MTGRAMDPLPAAAVGAAAEAEADEEADPPASDLPTPQAIEPQAIVQQVPAPSRMQMPQGNPLLLSHTLQELLARDTVQVELIPEKKGLFLKHVEYEVSSQRFKSSVYRRYNDFVVFQEMLLHKFPYRMVPALPPKRMLGADREFIEARRRALKRFVNLVARHPLFSEDVVLKLFLSFSGSDVQNKLKESAQCVGDEFLNCKLATRAKDFLPADIQAQFAISRELIRNIYNSFHKLRDRAERIASRAIDNAADLLIFGKELSAIGSDTTPLPSWAALNSSTWGSLKQALKGLSVEFALLADKAAQQGKQEINDVVEKLNLFLDLLQSYKDLCERHEKGVLHKHQRALHKYSLMKRQMMSATAQNREPESVEQLESRIVEQENAIQTMELRNYFSLYCLHQETQLIHVYLPLTSHILRAFVNSQIQGHKEMSKVWNDLRPKLSCLFAGPHSTLTPPCSPPEDGLCPH [E310I]
